Assay results: US20220118103A1, “METHOD FOR DECREASING IMMUNOGENICITY OF PROTEIN AND PEPTIDE” (HANMI PHARM. CO., LTD., priority 2014, published 2022)
“Also recorded” adds a separate entry of the source. Like-named read-outs stand apart in the source and are kept apart here.

Key:
[1] = test system: human GLP-1 overexpressed cell line (GLP-1R/CHO); assay: Neutralizing capacity of detected anti-HM11260C antibody: inhibition of cAMP induction; assay type: cell-based; conditions: for Neutralizing Ab: SD rat serum
Protocol: (§1) Measurement sensitivity in the rat serum was 3.1 ng/ml, and the measurement sensitivity in monkey serum was 12.5 ng/ml. To evaluate the neutralizing capacity against HM11260C of detected anti HM11260C antibody, serum samples and HM11260C were added to the human […] cell line (GLP-1R/CHO) and then the inhibition rate of cAMP-induction was measured.

[2] = Production of antibodies in Cynomolgus monkey, 26-week administration (bridging ELISA); assay type: in vivo
Protocol: The blood was taken before and during administration, at the 12th, 19th and 26th week, and at the end of the recovery period, the serum was separated from this. It was determined whether to produce the antibodies against the insulinotropic peptide.
(§2) In order to detect whether the conjugate of Example 3 has produced an anti-drug antibody (ADA) in the body of rat or Cynomolgus monkey, the conjugate was examined by the bridging ELISA method. The biotinylated conjugate of Example 3 was bound to the 96-well microplate in which streptavidin was coupled to the bottom thereof, and washed with water. Digoxigenin(DIG)-labeled conjugate of Example 3 (hereinafter, HM11260C) was added along with the serum samples of rat or monkey to react and then washed with water. Then, the horseradish peroxidase-coupled anti-DIG antibody (anti-DIG-POD antibody) was added and developed by TMB substrate (3,3′,5,5′-tetramethylbenzidine substrate).
as §1

[3] = Production of antibodies against long-acting insulinotropic peptide in normal rats, 26-week administration (bridging ELISA); assay type: in vivo, Sprague Dawley rat; conditions: for % positive / Positive (animals with antibody) / Time point (of positive antibody finding): SD rat
Protocol: The blood was collected before and during administration, at the 13rd, 19th and 26th week, and at the end of the recovery period, the serum was separated from this. It was determined on whether to produce the antibodies against the insulinotropic peptide.
as §2, §1

[4] = test system: peripheral blood mononuclear cells (PBMC) of the donor, CD8+ T cells removed
[5] = clinical, literature; cited from earlier work
[6] = test system: peripheral blood mononuclear cells (PBMC) of the donor, CD8+ T cells removed; remark: listed apart in the source
[7] = Total of all groups incl. vehicle, n=40
[8] = Total of all groups incl. vehicle, n=200

Imidazo-Acetyl Exendin-4 (Lys27)-Immunoglobulin Fc Conjugate [HM11260C]
Neutralizing Ab ([1]; Total of all groups): 0
Neutralizing Ab ([1]; high dose): 0
Neutralizing Ab ([1]; low dose): 0
Neutralizing Ab ([1]; mid dose): 0
neutralizing ability of the detected antibodies ([1]; sera of the two antibody-positive rats): not neutralizing antibodies; also recorded: no neutralizing ability
% positive [2, 7]: 0%
Positive/total [2, 7]: 0
production of antibodies ([2]; all subjects): no production of the antibodies in all subjects was detected
% positive ([2]; high dose, n=12): 0%
% positive ([2]; low dose, n=8): 0%
% positive ([2]; mid dose, n=8): 0%
Positive/total ([2]; s.c. once a week 26 weeks + 4 weeks recovery, high dose, n=12): 0
Positive/total ([2]; s.c. once a week 26 weeks + 4 weeks recovery, low dose, n=8): 0
Positive/total ([2]; s.c. once a week 26 weeks + 4 weeks recovery, mid dose, n=8): 0
% positive ([3]; 26 weeks, high dose, n=60): 1.6%
% positive ([3]; 26 weeks, low dose, n=40): 2.5%
% positive ([3]; 26 weeks, mid dose, n=40): 0%
Positive (animals with antibody) ([3]; s.c. once a week 26 weeks + 4 weeks recovery, high dose, n=60): 1
Positive (animals with antibody) ([3]; s.c. once a week 26 weeks + 4 weeks recovery, low dose, n=40): 1
Positive (animals with antibody) ([3]; s.c. once a week 26 weeks + 4 weeks recovery, mid dose, n=40): 0
% positive [3, 8]: 1.0%
Positive (animals with antibody) [3, 8]: 2
Time point (of positive antibody finding) ([3]; high dose): recovery
Time point (of positive antibody finding) ([3]; low dose): Week 13
subjects in which antibodies were detected ([3]; among 160 rats administered with the drug): two

Keyhole Limpet Haemocyanin [KLH, reference compound]
Proliferation and ELISpot % [4]: 80%

Lixisenatide
patients who produced an antibody [5]: 60-71%

imidazoacetyl-exendin-4 [CA Exendin-4]
Frequency of Response (%) [6]: 12%
Frequency of Response (%) [4]: 12%
Proliferation and ELISpot % [4]: 10%
